This passage reports IC50 results from US20140087995A1 (published 2014).

Numbered stars: 1 amine (or outer) side, 2 acyl side, 3 side chain; on linkers, the order of the positions; unused ones are H or OH. Bridge positions count the residues as written; N and C are the ends. Side chains are listed from the residue outwards. Ends that are not written are not given here. * marks the point of attachment. C20 diacid = O=C(O)CCCCCCCCCCCCCCCCCCC(=O)*; γGlu = O=C(O)[C@H](CCC(=O)[*:2])N[*:1]; AEEA = NCCOCCOCC(=O)O

Sequences and labels used below:
T1: human amylin receptor (human, UniProt P30988 25-474; O60896 24-148, limits assumed)
T1 construct: whole, on cells; Calcitonin receptor plus RAMP-3 gives the amylin 3(a) receptor; membranes of Amylin 3(a)/CRE-luc cells were used; also called hAmylin-R; hAmylinR
T1 sequence (looked up) 1: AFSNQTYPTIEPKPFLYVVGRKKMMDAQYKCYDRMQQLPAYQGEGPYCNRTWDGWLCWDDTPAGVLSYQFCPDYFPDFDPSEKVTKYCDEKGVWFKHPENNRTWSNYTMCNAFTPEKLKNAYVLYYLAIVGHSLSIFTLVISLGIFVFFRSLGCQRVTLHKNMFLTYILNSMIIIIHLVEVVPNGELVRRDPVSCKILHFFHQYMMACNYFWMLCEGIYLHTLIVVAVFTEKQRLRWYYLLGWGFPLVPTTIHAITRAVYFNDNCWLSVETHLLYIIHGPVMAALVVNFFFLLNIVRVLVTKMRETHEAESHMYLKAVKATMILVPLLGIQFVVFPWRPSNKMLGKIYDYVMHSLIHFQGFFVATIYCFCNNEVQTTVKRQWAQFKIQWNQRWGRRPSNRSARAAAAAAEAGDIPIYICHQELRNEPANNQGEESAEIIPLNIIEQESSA
T1 sequence (looked up) 2: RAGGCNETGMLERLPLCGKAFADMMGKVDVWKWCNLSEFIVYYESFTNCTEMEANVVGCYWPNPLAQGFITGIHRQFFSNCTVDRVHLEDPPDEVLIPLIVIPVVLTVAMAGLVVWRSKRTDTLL

B1: N^ε1-[2-[2-[2-[[(4S)-4-carboxy-4-(19-carboxynonadecanoylamino)butanoyl]amino]ethoxy]ethoxy]acetyl]-[Arg14,Arg17,Pro21,Pro27,Pro31]-h-amylin (peptide)
peptide: K([AEEA-γGlu-C20 diacid])CNTATCATQRLARFLRHSSPNFGAIPSSTPVGSNTY-NH2
modifications: disulfide 2-7; N-terminus assumed
SMILES: CC[C@H](C)[C@H](NC(=O)[C@H](C)NC(=O)CNC(=O)[C@H](Cc1ccccc1)NC(=O)[C@H](CC(N)=O)NC(=O)[C@@H]1CCCN1C(=O)[C@H](CO)NC(=O)[C@H](CO)NC(=O)[C@H](Cc1c[nH]cn1)NC(=O)[C@H](CCCNC(=N)N)NC(=O)[C@H](CC(C)C)NC(=O)[C@H](Cc1ccccc1)NC(=O)[C@H](CCCNC(=N)N)NC(=O)[C@H](C)NC(=O)[C@H](CC(C)C)NC(=O)[C@H](CCCNC(=N)N)NC(=O)[C@H](CCC(N)=O)NC(=O)[C@@H](NC(=O)[C@H](C)NC(=O)[C@@H]1CSSC[C@H](NC(=O)[C@@H](N)CCCCNC(=O)COCCOCCNC(=O)CC[C@H](NC(=O)CCCCCCCCCCCCCCCCCCC(=O)O)C(=O)O)C(=O)N[C@@H](CC(N)=O)C(=O)N[C@@H]([C@@H](C)O)C(=O)N[C@@H](C)C(=O)N[C@@H]([C@@H](C)O)C(=O)N1)[C@@H](C)O)C(=O)N1CCC[C@H]1C(=O)N[C@@H](CO)C(=O)N[C@@H](CO)C(=O)N[C@H](C(=O)N1CCC[C@H]1C(=O)N[C@H](C(=O)NCC(=O)N[C@@H](CO)C(=O)N[C@@H](CC(N)=O)C(=O)N[C@H](C(=O)N[C@@H](Cc1ccc(O)cc1)C(N)=O)[C@@H](C)O)C(C)C)[C@@H](C)O
notes: also called 14R, 17R, 21P, 27P, 31P
B2: N^ε1-[2-[2-[2-[[(4S)-4-carboxy-4-(19-carboxynonadecanoylamino)butanoyl]amino]ethoxy]ethoxy]acetyl]-[Arg17,Pro21,Pro27,Arg35]-h-amylin (peptide)
peptide: K([AEEA-γGlu-C20 diacid])CNTATCATQRLANFLRHSSPNFGAIPSSTNVGSRTY-NH2
modifications: disulfide 2-7; N-terminus assumed
SMILES: CC[C@H](C)[C@H](NC(=O)[C@H](C)NC(=O)CNC(=O)[C@H](Cc1ccccc1)NC(=O)[C@H](CC(N)=O)NC(=O)[C@@H]1CCCN1C(=O)[C@H](CO)NC(=O)[C@H](CO)NC(=O)[C@H](Cc1c[nH]cn1)NC(=O)[C@H](CCCNC(=N)N)NC(=O)[C@H](CC(C)C)NC(=O)[C@H](Cc1ccccc1)NC(=O)[C@H](CC(N)=O)NC(=O)[C@H](C)NC(=O)[C@H](CC(C)C)NC(=O)[C@H](CCCNC(=N)N)NC(=O)[C@H](CCC(N)=O)NC(=O)[C@@H](NC(=O)[C@H](C)NC(=O)[C@@H]1CSSC[C@H](NC(=O)[C@@H](N)CCCCNC(=O)COCCOCCNC(=O)CC[C@H](NC(=O)CCCCCCCCCCCCCCCCCCC(=O)O)C(=O)O)C(=O)N[C@@H](CC(N)=O)C(=O)N[C@@H]([C@@H](C)O)C(=O)N[C@@H](C)C(=O)N[C@@H]([C@@H](C)O)C(=O)N1)[C@@H](C)O)C(=O)N1CCC[C@H]1C(=O)N[C@@H](CO)C(=O)N[C@@H](CO)C(=O)N[C@H](C(=O)N[C@@H](CC(N)=O)C(=O)N[C@H](C(=O)NCC(=O)N[C@@H](CO)C(=O)N[C@@H](CCCNC(=N)N)C(=O)N[C@H](C(=O)N[C@@H](Cc1ccc(O)cc1)C(N)=O)[C@@H](C)O)C(C)C)[C@@H](C)O
notes: also called 17R, 21P, 27P, 35R
B3: N^ε1-[2-[2-[2-[[(4S)-4-carboxy-4-(19-carboxynonadecanoylamino)butanoyl]amino]ethoxy]ethoxy]acetyl]-[Arg17,Pro21,Pro27,Arg34]-h-amylin (peptide)
peptide: K([AEEA-γGlu-C20 diacid])CNTATCATQRLANFLRHSSPNFGAIPSSTNVGRNTY-NH2
modifications: disulfide 2-7; N-terminus assumed
SMILES: CC[C@H](C)[C@H](NC(=O)[C@H](C)NC(=O)CNC(=O)[C@H](Cc1ccccc1)NC(=O)[C@H](CC(N)=O)NC(=O)[C@@H]1CCCN1C(=O)[C@H](CO)NC(=O)[C@H](CO)NC(=O)[C@H](Cc1c[nH]cn1)NC(=O)[C@H](CCCNC(=N)N)NC(=O)[C@H](CC(C)C)NC(=O)[C@H](Cc1ccccc1)NC(=O)[C@H](CC(N)=O)NC(=O)[C@H](C)NC(=O)[C@H](CC(C)C)NC(=O)[C@H](CCCNC(=N)N)NC(=O)[C@H](CCC(N)=O)NC(=O)[C@@H](NC(=O)[C@H](C)NC(=O)[C@@H]1CSSC[C@H](NC(=O)[C@@H](N)CCCCNC(=O)COCCOCCNC(=O)CC[C@H](NC(=O)CCCCCCCCCCCCCCCCCCC(=O)O)C(=O)O)C(=O)N[C@@H](CC(N)=O)C(=O)N[C@@H]([C@@H](C)O)C(=O)N[C@@H](C)C(=O)N[C@@H]([C@@H](C)O)C(=O)N1)[C@@H](C)O)C(=O)N1CCC[C@H]1C(=O)N[C@@H](CO)C(=O)N[C@@H](CO)C(=O)N[C@H](C(=O)N[C@@H](CC(N)=O)C(=O)N[C@H](C(=O)NCC(=O)N[C@@H](CCCNC(=N)N)C(=O)N[C@@H](CC(N)=O)C(=O)N[C@H](C(=O)N[C@@H](Cc1ccc(O)cc1)C(N)=O)[C@@H](C)O)C(C)C)[C@@H](C)O
notes: also called 17R, 21P, 27P, 34R
B4: N^ε1-[2-[2-[2-[[(4S)-4-carboxy-4-(19-carboxynonadecanoylamino)butanoyl]amino]ethoxy]ethoxy]acetyl]-[Arg14,Arg17,Pro21,Pro27]-h-amylin (peptide)
peptide: K([AEEA-γGlu-C20 diacid])CNTATCATQRLARFLRHSSPNFGAIPSSTNVGSNTY-NH2
modifications: disulfide 2-7; N-terminus assumed
SMILES: CC[C@H](C)[C@H](NC(=O)[C@H](C)NC(=O)CNC(=O)[C@H](Cc1ccccc1)NC(=O)[C@H](CC(N)=O)NC(=O)[C@@H]1CCCN1C(=O)[C@H](CO)NC(=O)[C@H](CO)NC(=O)[C@H](Cc1c[nH]cn1)NC(=O)[C@H](CCCNC(=N)N)NC(=O)[C@H](CC(C)C)NC(=O)[C@H](Cc1ccccc1)NC(=O)[C@H](CCCNC(=N)N)NC(=O)[C@H](C)NC(=O)[C@H](CC(C)C)NC(=O)[C@H](CCCNC(=N)N)NC(=O)[C@H](CCC(N)=O)NC(=O)[C@@H](NC(=O)[C@H](C)NC(=O)[C@@H]1CSSC[C@H](NC(=O)[C@@H](N)CCCCNC(=O)COCCOCCNC(=O)CC[C@H](NC(=O)CCCCCCCCCCCCCCCCCCC(=O)O)C(=O)O)C(=O)N[C@@H](CC(N)=O)C(=O)N[C@@H]([C@@H](C)O)C(=O)N[C@@H](C)C(=O)N[C@@H]([C@@H](C)O)C(=O)N1)[C@@H](C)O)C(=O)N1CCC[C@H]1C(=O)N[C@@H](CO)C(=O)N[C@@H](CO)C(=O)N[C@H](C(=O)N[C@@H](CC(N)=O)C(=O)N[C@H](C(=O)NCC(=O)N[C@@H](CO)C(=O)N[C@@H](CC(N)=O)C(=O)N[C@H](C(=O)N[C@@H](Cc1ccc(O)cc1)C(N)=O)[C@@H](C)O)C(C)C)[C@@H](C)O
notes: also called 14R, 17R, 21P, 27P
B5: N^ε1-[2-[2-[2-[[(4S)-4-carboxy-4-(19-carboxynonadecanoylamino)butanoyl]amino]ethoxy]ethoxy]acetyl]-[Arg17,Pro21,Pro27,His34]-h-amylin (peptide)
peptide: K([AEEA-γGlu-C20 diacid])CNTATCATQRLANFLRHSSPNFGAIPSSTNVGHNTY-NH2
modifications: disulfide 2-7; N-terminus assumed
SMILES: CC[C@H](C)[C@H](NC(=O)[C@H](C)NC(=O)CNC(=O)[C@H](Cc1ccccc1)NC(=O)[C@H](CC(N)=O)NC(=O)[C@@H]1CCCN1C(=O)[C@H](CO)NC(=O)[C@H](CO)NC(=O)[C@H](Cc1c[nH]cn1)NC(=O)[C@H](CCCNC(=N)N)NC(=O)[C@H](CC(C)C)NC(=O)[C@H](Cc1ccccc1)NC(=O)[C@H](CC(N)=O)NC(=O)[C@H](C)NC(=O)[C@H](CC(C)C)NC(=O)[C@H](CCCNC(=N)N)NC(=O)[C@H](CCC(N)=O)NC(=O)[C@@H](NC(=O)[C@H](C)NC(=O)[C@@H]1CSSC[C@H](NC(=O)[C@@H](N)CCCCNC(=O)COCCOCCNC(=O)CC[C@H](NC(=O)CCCCCCCCCCCCCCCCCCC(=O)O)C(=O)O)C(=O)N[C@@H](CC(N)=O)C(=O)N[C@@H]([C@@H](C)O)C(=O)N[C@@H](C)C(=O)N[C@@H]([C@@H](C)O)C(=O)N1)[C@@H](C)O)C(=O)N1CCC[C@H]1C(=O)N[C@@H](CO)C(=O)N[C@@H](CO)C(=O)N[C@H](C(=O)N[C@@H](CC(N)=O)C(=O)N[C@H](C(=O)NCC(=O)N[C@@H](Cc1c[nH]cn1)C(=O)N[C@@H](CC(N)=O)C(=O)N[C@H](C(=O)N[C@@H](Cc1ccc(O)cc1)C(N)=O)[C@@H](C)O)C(C)C)[C@@H](C)O
notes: also called 17R, 21P, 27P, 34H
B6: N^ε1-[2-[2-[2-[[(4S)-4-carboxy-4-(19-carboxynonadecanoylamino)butanoyl]amino]ethoxy]ethoxy]acetyl]-[Arg17,Pro21,Pro27,Glu35]-h-amylin (peptide)
peptide: K([AEEA-γGlu-C20 diacid])CNTATCATQRLANFLRHSSPNFGAIPSSTNVGSETY-NH2
modifications: disulfide 2-7; N-terminus assumed
SMILES: CC[C@H](C)[C@H](NC(=O)[C@H](C)NC(=O)CNC(=O)[C@H](Cc1ccccc1)NC(=O)[C@H](CC(N)=O)NC(=O)[C@@H]1CCCN1C(=O)[C@H](CO)NC(=O)[C@H](CO)NC(=O)[C@H](Cc1c[nH]cn1)NC(=O)[C@H](CCCNC(=N)N)NC(=O)[C@H](CC(C)C)NC(=O)[C@H](Cc1ccccc1)NC(=O)[C@H](CC(N)=O)NC(=O)[C@H](C)NC(=O)[C@H](CC(C)C)NC(=O)[C@H](CCCNC(=N)N)NC(=O)[C@H](CCC(N)=O)NC(=O)[C@@H](NC(=O)[C@H](C)NC(=O)[C@@H]1CSSC[C@H](NC(=O)[C@@H](N)CCCCNC(=O)COCCOCCNC(=O)CC[C@H](NC(=O)CCCCCCCCCCCCCCCCCCC(=O)O)C(=O)O)C(=O)N[C@@H](CC(N)=O)C(=O)N[C@@H]([C@@H](C)O)C(=O)N[C@@H](C)C(=O)N[C@@H]([C@@H](C)O)C(=O)N1)[C@@H](C)O)C(=O)N1CCC[C@H]1C(=O)N[C@@H](CO)C(=O)N[C@@H](CO)C(=O)N[C@H](C(=O)N[C@@H](CC(N)=O)C(=O)N[C@H](C(=O)NCC(=O)N[C@@H](CO)C(=O)N[C@@H](CCC(=O)O)C(=O)N[C@H](C(=O)N[C@@H](Cc1ccc(O)cc1)C(N)=O)[C@@H](C)O)C(C)C)[C@@H](C)O
notes: also called 17R, 21P, 27P, 35E

In this assay the target is T1, human amylin receptor. The assay is described as follows: SPA competition binding, displacement of 125I-rat amylin from membranes with human amylin 3(a) receptor (Assay V). The procedure, abridged: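 Membranes from BHK Amylin 3(a)/CRE-luc cells (35 ng/μL final) were mixed with SPA beads and test compounds in 50 mM Hepes pH 7.4 with 1 mM CaCl2, 5 mM MgCl₂, 0.1% OA and 0.02% Tween20. Incubation ran 120 min at 25° C with shaking; IC₅₀ came from one-site competition fitting.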
For orientation: Loss of bound radioactivity is the signal in a displacement assay; it reports binding, not function.
Broadly, the IC50 is the point on the concentration scale where inhibition reaches its midpoint. For B1, the IC50 worked out at 444 pM.
As for B2, the figure is 249 pM; as for B3, 602 pM; as for K([AEEA-γGlu-C20 diacid])CNTATCATQRLANFLRHSSPNFGAIPPSTPVGSNTY-NH2 (disulfide 2-7, also called 17R, 21P, 27P, 28P, 31P), 52 pM.
As for B4, the figure is 636 pM; as for B5, 215 pM.
To B6 belongs 532 pM.
